Test results taken from the supplement of paper PMC9170038.

test system: MS2 coat protein; test: apparent KD of MS2 coat protein; higher = weaker reporter binding; details: Eterna round: R107; input ligand: arginine 13.2 mM
Method in brief: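 Apparent KD per design is the median of normalised cluster binding-curve fits. Designed RNA switches transcribed on-chip from Illumina sequencing clusters were titrated with SNAP-549-labelled MS2 coat protein in twofold steps from 0.7 or 1.5 nM to 3 µM, with 0.8–1.5 h down to 10–20 min per step. Buffer: 100 mM Tris-HCl pH 7.5, 80 mM KCl, 4 mM MgCl2, without or with constant ligand.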

Row | Sequence | apparent KD of MS2 coat protein
1 | UGCCGAGACGUGGAUUACCCGUGUACCGAAGGAGCGCCCGAAAGGGCAGGUAGGUCGCGGAGGACAUGAGGAUCACCCAUGUUUA | 202 nM
2 | UUCUACAUGAGGAUCACCCAUGUGGGUGAUACCAGCACUUUUUGGUGCCCUUGGCAGCACAUGAGAAUACCGUACGAUCGGCGAU [Arainbi] | 122 nM
3 | AAACAUGAGGAUCACCCAUGUAAAGUUGAAGGAGCGACCAGAGGGUCAGGUAGGUCGCAACACAUGAGGAUCACCCAUGUAUCGA [DOUBLE!!! :-D #5] | 41.3 nM
4 | ACACAUGAGGAUCAUCCAUGUGCCCAUGAAGGAGCGUGGGAAACCACAGGUAGGUCGCAUGACAUGAGGAUCACCCAUGUUUAUU [#03 Exclusion - Arginine A] | 66.6 nM
5 | ACGUCACGUUUACUCGUGGUUUCGUUCGAUACCAGUAGCGAGAGUUACCCUUGGCAGCGACAUGAGGAUCACCCAUGUACGAAGA [XTheo A #24] | 12.7 nM
6 | CGGUUUGUGAUGGAUACCAGCAGUGUGGCUGUUUAUCCUGACAUGAGGAUCACCCAUGUGUGCCCUUGGCAGCUGUUGUGGGCUG [8.aC] | 64.1 nM
7 | AGAUGAGUCACGGCCGCCACUCUUCACAGGUUCACCCUUGGUUAACAUGAGGAUCACCCAUGUGGGAGGACCGGGUGAUGAGCAU [XTryp B #5] | 14.2 nM
8 | GACAUGAGGAUCACCCAUGUGUAACCAGAAGGAGCGUGCGAAAGCACAGGUAGGUCGCUGGUGGGUUUAGGUUUAGUAGGUGUUC [SSAA NP+V+V2 #3] | 87.6 nM
9 | GGGACAUGAGGAUCACCCAUGUACCGGUCCCGAGGACCGGUACGGCCGCCACUCGAUGACCUCAUAGUCUACUUGAGCAGUAGAC [Geeson] | 37.7 nM
10 | CUAAUUAAAUCGGCCGCCACUUACUCAUGAGGUAACAACAUGAGGAUCACCCAUGUUUGAGGAUCAAGGACCGGGAUUUAAUUAG [AstrosSSTry#23] | 24.9 nM
11 | GGGCCCGGGCGCGAGCCCGGGCCCAUUGAUACCAGUGAAUGUGUGCGCCCUUGGCAGCGAAUCCUAACAUGAGGAUCACCCAUGU [5.E] | 16.2 nM
12 | GCACCAGGUACGGAUACCAGAGCAAGCCAAAUGAGUGAACUUGAGGAUCACCCAAGUUUGCUCCCUUGGCAGCCGUACCUGGUGC [ETB NP+V+V2 #12 Diff Apt, +-Same Structure] | 7.29 nM
13 | ACAUGAGGAUCACCCAUGUCAUGAGGUUCACGAGGACCGGUACGGCCGCCACUCGACAUGAGGGUCACCCGUGAAGGGAACACCC [xdmullin] | 18.1 nM
14 | GGCACCAGGAGAAGGAGCGUGAAGACAUGAGGAUCACCCAUGUAGAGGCCCGGACCGGGUUCGCAGGUAGGUCGCUCCUGGUGCC [#1 Same State - Arginine B Attempt #15 (HarryS)] | 10 nM
15 | AGAUGAGUCACGGCCGCCACUCACUACAGGUUCACCCUUGGUUAACAUGAGGAUCACCCAUGUGGGAGGACCGGGUGAUGAGCAU [XTryp B #4] | 18.5 nM
16 | UUUAAAUAGACGGCCGCCACUGGAAUUAAUACAUGAGGAUCACCCAUGUAGAGAGAAUAAUAAUACAGGACCGGGUCUUCAUGAA [SS Tryp B Tesla 1] | 27.2 nM
17 | ACGCCCGCCUCACAUGAGGAUCACCCAUGUCGAGGACCGGUACGGCCGCCACUCGUCGUCGGUAAUACGGGCGUUGAAUAAUAUA [Atedon] | 11.8 nM
18 | AAUUAAUUAACCGAUACCAGCCAACCAAAACAUGAGGAUCACCCAUGUAAGAAGAAGGGUGGCCCUUGGCAGCGGUUAAUUAAUU | 31.4 nM

Row | Sequence | apparent KD of MS2 coat protein
19 | AGGACGGUCGGAAGGAGCGGUACAUGAGGAUCACCCAUGUAUUCCUGGGCAUCCGUAGUGUGCCAGGUAGGUCGCCGAUUGCGGG [XArg-B7] | 57.6 nM
20 | UAUCCACAUGAGGAUCACCCAUGUUAGGAAGGAGCGGUGAAUGAACCAGGUAGGUCGCCUAGGUGAGGACCAUCUAUGGAUUCGU [Exclusion - Arginine A (Freestyle 12)] | 12.8 nM
21 | AACAUGAGGAUCACCCAUGUAAAAUGGGAUACCAGAGACGAAAGUCUCCCUUGGCAGCCCACUGCCUCCUUUACGAAAGUAGAGG [Theophylline A 15] | 29.8 nM
22 | UUAUAAGUACCGGUCCUCAGAUCCUCAUGACGAGGACCGGUACGGCCGCCACUCGAAACAUGAGGAUCACCCAUGUAAUAACAUC [Brourdmod21] | 19 nM
23 | UCGGGCAUAGCGGCCGCCACUGUUUGGCGUGCGGAUGACGGAACAUGAGGAUCACCCAUGUUGUUUAGGACCGGGCUUGCGUCGU [zyzmullin] | 14 nM
24 | GAUAUACGUGCGGCCGCCACUGAGUGGCGGGCGUGUCGAGUUACAUGAGGAUCACCCAUGUCACUCAGGACCGGGCACGGAAUUU [Soveri] | 7.64 nM
25 | AGCUCGCAAUCCUCAGCGUCAAAGACGCGUCGAGGACCGGUACGGCCGCCACUCGACAAGAGGAUCACCCUUGUCUAAGCGAGCA [TrypAX 5 #SwitchBubble #AlternativeMS2 #MS2Late #CuTurnoff] | 78.5 nM
26 | AUAAGUAAUGUCUCGUGUAUUAUUACAGAUACCAGACUAUCCUAUGUCCCUUGGCAGCUGGAUUACAUGAGGAUCACCCAUGUUG [#10 Exclusion-TheophyllineA] | 21.5 nM
27 | GGUUGAAACUGAAGGAGCGAGAUGACAACAUUGGGUCUAACAUGAGGAUCACCCAUGUAAUCUCAGGUAGGUCGCAGUGACCAAA [Exclusion Arginine B GF 14] | 38.1 nM
28 | AUCGUACCUGAUGAUACCAGCAAGUGAUCAUAACAUGAGGAUCACCCAUGUAAUCAGUGAUGCCCUUGGCAGCAUAGUCGAUACA [Same State - Theophylline B (Freestyle 5)] | 77.8 nM
29 | GAGCGCAGUUUACAACAUACUAACACAGAUACCAGAAAUUUUAUGUUCCCUUGGCAGCUGACAACAUGAGGAUCACCCAUGUGCU [theeternabot_exclusion_MS2_Theo_A_27] | 17.5 nM
30 | AUAAAUAAGGCGGCCGCCACUAAUAUAUUAAUAUUUUAUAUCCGACAUGAGGAUCACCCAUGUGGUAGGACCGGGCCAAUAAUUA [Same State - Tryptophan B] | 20.4 nM
31 | AUAAGUAUGUUUUCGUGUUUUAUUACAGAUACCAGACUAUACGUUGUCCCUUGGCAGCUGGAUUACAUGAGGAUCACCCAUGUUG [#26 Exclusion-TheophyllineA] | 19.9 nM
32 | GAUGAACUAUUUGAUACCAGACAACAUGAGGAUCACCCAUGUGCGCGUCGUCCUCUGCCUGUCCCUUGGCAGCGGAUAGUUUAUC [XTheo B #12] | 32.5 nM
33 | GGUCUCUGGAGCGAUACCAGCUUAAUCGUACUGGCCAGGUACAUGAGGAUCACCCAUGUAAGCCCUUGGCAGCGCUCCAGAGACC [#1 Exclusion - Theophylline B Attempt #11 (HarryS)] | 6.02 nM
34 | ACAAUAUUGAGUUUGUCUCAAGUUUCAGAAGGAGCGUGAGGAAUCACAGGUAGGUCGCUGAUAACAUGAGGAUCACCCAUGUAUU [JR_SSArginiA_Sub005] | 26.1 nM
35 | UUUACAUGAGGAUCACCCAUGUGCCAUGAUACCAGACAUGAAAAUGUCCCUUGGCAGCAUGAGUGAAGCGUCGGGAAACCGACGC [Kninicky] | 57.1 nM
36 | UCGCAUUGCUCAGAUACCAGACAUGAGGAUCACCCAUGUACCAAGGUAACCGAAAGGCAUGUCCCUUGGCAGCUGAGCAAUGCGU [MAT - Exclusion Theophlline B - Mod of Eli - D14] | 12.4 nM
